According to the DeepSol protein solubility set:

assay: soluble on expression in E. coli; label from the status in PepcDB or PDB records

| Sequence | soluble on expression in E. coli |
| --- | --- |
| MGSDKIHHHHHHMENIPFLRASTVPVIEYLDELKEIDASHIYTNYGPINQRFEQTIMSGFFQNRGAVTTVANATLGLMAAIQLKKRKKGKYALMPSFTFPATPLAAIWCGLEPYFIDISIDDWYMDKTVLWDKIEELKEEVAIVVPYATFGSWMNLEEYEELEKKGVPVVVDAAPGFGLMNGGMHYGQDFSGMIIYSFHATKPFGIGEGGLIYSKNEEDIQRIKRMGNFGFDTNRECTMMGFNCKMSEYAAAIGIATMKKWDDKLKERTRISEWYKQLLQSNGLMKKGWQLQKTEAVIQQFMPILCPEEVRNKQVIEDLKKQKIEARLYFSPSCHQQVLFRNYKSTDLTRTNKIAKRIVSLPLWEGMTKEIVEQIVICLGQKVVSADE | not soluble |
| MSSNDSSLMAGIIYYSQEKYFHHVQQAAAVGLEKFSNDPVLKFFKAYGVLKEEHIQDAISDLESIRHHPDVSLCSTMALIYAHKRCEIIDQEAIQELEYSLKEIRKTLSGTALYYAGLFLWLIGRHDKAKEYIDRMLKISRGFREAYVLRGWVDLTSDKPHTAKKAIEYLEQGIQDTKDVLGLMGKAMYFMMQQNYSEALEVVNQITVTSGSFLPALVLKMQLFLARQDWEQTVEMGHRILEKDESNIDACQILTVHELAREGNMTTVSSLKTQKVILETESRRNPS | not soluble |
| MSLSDGDYDYLIKFLALGDSGVGKTSVLYQYTDGKFNSKFITTVGIDFREKRVVYRASGPDGATGRGQRIHLQLWDTAGQERFRSLTTAFFRDAMGFLLLFDLTNEQSFLNVRNWISQLQMHAYCENPDIVLCGNKSDLEDQRVVKEEEAIALAEKYGIPYFETSAANGTNISQAIEMLLDLIMKRMERCVDKSWIPEGVVRSNGHASTDQLSEEKEKGACGCEGHHHHHH | soluble |
| MGSDKIHHHHHHMKKIYKSLTVSAIVATVSLSALPQSLAITHESQPTKQQRTVLFDRSHGQTAGAADWVSDGAFSDYADSIQKQGYDVKAIDGHSNITEASLKSSKIFVIPEANIPFKESEQAAIVNYVKQGGNVVFISDHYNADRNLNRIDSSEAMNGYRRGAYEDMSKGMNAEEKSSTAMQGVKSSDWLSTNFGVRFRYNALGDLNTSNIVSSKESFGITEGVKSVSMHAGSTLAITNPEKAKGIVYTPEQLPAKSKWSHAVDQGIYNGGGKAEGPYVAISKVGKGKAAFIGDSSLVEDSSPKYVREDNGEKKKTYDGFKEQDNGKLLNNITAWMSKDSDGKSLKASGLTLDTKTKLLDFERPERSTEPEKEPWSQPPSGYKWYDPTTFKAGSYGSEKGADPQPNTPDDHTPPNQNVKISFDIPQNVSVNEPFEVTIHLKGFEANQTLENLRVGIYKEGGRQIGQFSSKDNDYNPPGYSTLPTVKADENGNATIKINAKVLESMEGSKIRLKLGDKTLITTDFK | not soluble |
| MKFYTILSILFISFMLSACAVLQKSSPLQENKDFYILDTHTQKKISFEDMILELLKADVILLGEKHDEVKHKISQVMIFNALEGNLSSQNINFDVALEMLASTEQNHLDKAFKNKKTIKANELTNALNWDKVWKWKDYEQFVNVVFYSKSKILGANLSRSEITSIYNGAQPLKGYVSTTNEVKKQLFDIISLSHKLNPEENKELLDKLVEIQQFKDRRMADVLVHHVNKVLLLAGSYHTSKKIGIPLHIQDFKSSKKIVVVNLSYGEIDLKDSDYVLIYKGEE | not soluble |
| MGSDKIHHHHHHMATLTTNTPIATGSTFSAASLQFLNKLAQNNSRDWFKAHQAEYEETVRTPALQFIEQMQPSILALSPRLTAVPKKVGGSLMRPQRDSRFSKDKTPYKTNIGIQFRHFQGKDVHAPGLYLHIAEDGCFIAAGIWHPESKALNAIRTCIDENPNGYKKALQTLQNHGFTMDGDSLTRPPKGFDKNHPMLTELKRKDFIAVKNIAFEELCRPDAACFCAEQFAHCTQLMAYLCFALDLDF | not soluble |
| MDGSFVQHSVRVLQELNKQREKGQYCDATLDVGGLVFKAHWSVLACCSHFFQRIYGDGTGGSVVLPAGFAEIFGLLLDFFYTGHLALTSGNRDQVLLAAKELRVPEAVELCQSFQPQTSVGQAQSGLGQPASQDVKSHLKEPTDLDEEEVFKTLSLASVDQEPRDTEQPQLGTPAQSSTAFLCGKLTQALKPSPSEDKESEDCKEPPRPFEAGGAPLQGESNEWEVVVQVEDDRDGDYVSEPETVLTRRKSKVIRKPCAAEPALGAGSLTAEPTDSRKGAAVPVECPTCHKKFLSKYYLKVHNRKHTGEKPFECPKCGKCYFRKENLLEHEARNCMNRSEQVFTCSVCQETFRRRMELRLHMVSHTGEMPYKCSSCSQQFMQKKDLQSHMIKLHGAPKPHAVSASQGWGSGGSGTAQSCPHLDVLPLPVSPTCSAPLVPSASCLGRSYSCTRLLSIVEKSSLCVRNAGTGPRAATGCRCTSRPSTGMKGLMSVSSAAMPSPRRPTSTCTCARTPARSLSSATSVGRPSAPKFGQAQPHPHGREAFQL | soluble |
| MLTLSPPPAYLVTAANPAPSVAAAAPRALVFGGSGQIGERLLTRLLGRGWQVTAWSRAPRAARAGLIWRQGDLAAPAVAGESFEVIFSCGPLDHFAHWYETNAVSTPRIVAFGSTSVEVKEHSIDAAERDVAQRLANAEQALFSAAKARGAAATVLRPTLVYGAGRDRTLTQIAGLARRTGAFVLPANATGLRQPVHVDDLASAALAVVTQPATHQRSYAVGGGEVLAYTQMVERVLEALPRPARLYQVPPSLFGLALTTAQRLGRLRSLNTAALQRMRDDLVFDLEPARRDFGYAPRAFRPLPEELGIGELEHHHHHH | not soluble |
| MTVDFYSFAKGIVKGVLTPFYRIQTIGIEQFPKEGGVLLCANHISNLDPPVIGITAPRPIRFMAKEELFRAPVVKTLVKSLHAFPVKRGMNDRQALRTGLEVLKQGEVLGIFPEGTRSKDGRLKKALPGVGFFALRTDAAVVPCAIVGPYRPFVPLKVVYGAPVDMAPLRARKASPEEAADYIMDHIRRLLEEHQRA | not soluble |
| MGHHHHHHSHMRQRLLPSVTSLLLVALLFPGSSQARHVNHSATEALGELRERAPGQGTNGFQLLRHAVKRDLLPPRTPPYQGDVPPGIRNTICRMQQGICRLFFCHSGEKKRDICSDPWNRCCVSNTDEEGKEKPEMDGRSGI | not soluble |
| MSLKLIGIVGSNADSSYNRLLLQYIGKEFYKMFDLEILEIKDIPMFNQSKDQTNSVLIQNMNRKILQADGVIIATPEHNHTIPAGLKSVLEWLSFKIHPLENKPVMIVGCSYYDQGTSRAQLHLRQILDAPGVNAIVMPGNEFLLGKAKEAFDENGNLIAEGTRQFLESTLQKFVEFIDVISKLEGAKPKDLPEDLHAKGTIETTIEGVDMAADDWVEQAAEAVQAVEGDTYVKLDRGILTVDQLNYFLKSMPMELTYADSNNQFLYYNKKMAAEEMFAKRQPGQVGNPLANCHPPKALKNVEWVIQQLRSGKTDAIRVHVPMHGPDTYVVHNYQAMYDDNGNYAGINEYILDFKPIVDWYLKQTGQELVGGKNVDAVSGASKKEAPETADSVSSASVHEEESATEKPTVDSVSSASIKEEGHHHHHH | soluble |
| MGSSHHHHHHSSGLGPGGSHMASMSDSEVNQEAKPEVKPEVKPETHINLKVSDGSSEIFFKIKKTTPLRRLMEAFAKRQGKEMDSLRFLYDGIRIQADQTPEDLDMEDNDIIEAHREQIGGSLGRACKYENPARWSEQEQAIKGVYSSWVTDNILAMARPSSELLEKYHIIDQFLSHGIKTIINLQRPGEHASCGNPLEQESGFTYLPEAFMEAGIYFYNFGWKDYGVASLTTILDMVKVMTFALQEGKVAIHCHAGLGRTGVLIACYLVFATRMTADQAIIFVRAKRPNSIQTRGQLLCVREFTQFLTPLRNIFSEGHHHHHH | soluble |
| STGNAGEWCLMESDPGVFTELIKGFGCRGAQVEEIWSLEPENFEKLKPVHGLIFLFKWQPGEEPAGSVVQDSRLDTIFFAKQVINNACATQAIVSVLLNCTHQDVHLGETLSEFKEFSQSFDAAMKGLALSNSDVIRQVHNSFARQQMFEFDTKTSAKEEDAFHFVSYVPVNGRLYELDGLREGPIDLGACNQDDWISAVRPVIEKRIQKYSEGEIRFNLMAIVSDRKMIYEQKIAELQRQLAEEPMDTDQGNSMLSAIQSEVAKNQMLIEEEVQKLKRYKIENIRRKHNYLPFIMELLKTLAEHQQLIPLVEKAKEKQNAKKAQETK | soluble |
| MEKYMSLLTRIEEMMQSTSYQEGDRLPSIRQLSARYQVSKSTVIRALQELEKRHLIYSVPKSGYYIVKKSGKSKSGQPGPIDFATSAPDPDVFPYLDFQHCINKAIDTYKNDLFIYGTPKGLPSLIRVLRKLLATQQVFADERHIFITSGVQQALSLLCAMPFPNGKEKIAIEQPGYHLMVEQLETLGIPAIGVKRTEEGLDIAKVERLFQTESIKFFYTMPRFHNPLGCSLSERDKQELVRLAEAYDVYLVEDDYLGDLEENKKADPLYAYDLSSHVIYLKSFSKMMFPGLRVGAAVLPEALTDTFYAYKKLNDIDCSMISQAALEIYLKSGMYGRHKEKIRDSYKERSLRLHQAIRTHRQLGSGRFTFSSGQAPCMHTHLVLPQDLPASRVIHRLEKQGVLLEAIDRHYLSDYPKENLLKINISNVKTEDIERGVKLLMSHL | not soluble |
| MGSDKIHHHHHHMKKGFSALVEHNGYRVLVDTGTDGKILLNNMEGLGIDPNSIDALFLTHGHYDHTGGIAELLKARKDTLDVYAHPRIFEKRIALKPKRRDIGIPFSQEELESLGAIFHLNDKALEFLPGLISSGEIKRETWDRAVGYLLNNEKDPVRDDMALLIDLGDKIAVITGCGHSGILNIAKHAVEISKKPIRALIGGFHLRGASITILEDAVRGLKELNVEMLYPGHCTGIDEYAYLRMKLKAEHLNVGKEIVIK | not soluble |
| MAHHHHHHMASAVVAPPRGIKADPRASPNQGRRNGDGGRVLHAVPEEANKRRREREEAQHGAARYRGRNGQAVAELHGTARVKVNLVRRGTSKRRKGGRVGHLHHKPRRAPRPLAKHICPRALGETRISDGRPRPPQPRSDERHGSEGVVAVGAHVPYGSAPLRRRKHRNEAGRQQVRRVRHVRRLVPRVEGEVKPHVQLQRLTRRNHAHVPTQRGEADELGTLLHSNHVKVTAHRRGRRCRPKASARAAAGRERRRHARSRRSAPPAQVRRIDARRVAQKRSTHVHNRVIPDRSNAVRTRRGGRNDTLALRQHETHRRAAARGDLSVPHHNGAVGPHLHLRRQRVPRRHARRQRHIAVLNSHTLVPRAAVGARHAVHPDTRRQPCSRGV | not soluble |
| MGSDKIHHHHHHCRDELSTAGGKWVESSLRTIQTDTCTVRLSTILSDSLATSGDTVCQIGTIDDPVWGKIKAAFYAEYDVPTVSFSENADYRFDSITIRFYSSGNYLGDTLSPQRISLHSLSENLSLDEGYLYTTSKVSYHSTPLASFTFTPTPGETIREHEIRLPDEWGVEWFEHFQAGSREMESQEYFRDYFKGIAFIPEEGGNCVNGFMVNDSSLCITLYYHQTETDATELSADFLPNSDLRFNQVSCDRSRTALSSLQSGLNNGLPSEKSEHQSYLQGLTGMYINIDFPFLNDLRAEGRLVTIESALLRLYPVKGTYGKQYPLPESLTLYTADENNVTEDVVTDISGSSVQTGSLVTDEMMGEDTYYSFDITSFLQSNLGTVGYNRKILQLMLPDNLFFTTLNGVVFGDARHPDSNPVKLTLLYKTYNP | not soluble |
| MGSDKIHHHHHHMEISDIIYGQHHIDGVLEELIKSAPVQRLKGIYQGGASFLVNRKWNVTRYEHSIGVMLLIKKLGGTIEEQIAGLLHDVSHTAFSHVVDVVFENQAEDYHENIFQQVIVHSEIPDILQKHGYHTEELLSDDSRWTLLEQPAPELCADRTDYTLRDMYRYGHINLHEAQTFLDHLIVRNGRMFPDSIEAAEWFVSVYYKEVIDFFLNPVNVYGYEYLARALKAALRHDVISAEDLLKTDQEVLNILRASKNEEVLSLLTSIHPGIQVIEDDIQYDFHQKKKMRLIDPSIFLDDKWIKSSGVSEKVRKMGEAAYQKAKKGVYIKILKQ | not soluble |
